Experimental findings from article PMC5990521, “Structural basis of DUX4/IGH-driven transactivation” are described below.

Common to all, as to test: BLI; BLI on Octet Red 96, biotin-DNA-DRE on SA sensors, protein 0.5-32 uM (HD2) or 0.25-16 uM (HD1-HD2); buffer, salt, pH and temperature not given in the material
For one data set, the target named is DUX4 HD2 Q143E (human, UniProt Q9UBX2 94-153, Q143E). The conditions noted are these: protein: recombinant; tags: N-terminal His-tag, removed with thrombin; blunt.
Chain of DUX4 HD2 Q143E (Q9UBX2 94-153 Q143E): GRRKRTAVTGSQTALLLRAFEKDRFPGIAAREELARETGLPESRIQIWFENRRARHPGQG
The next data set addresses DUX4 HD2 R98A (human, UniProt Q9UBX2 94-153, R98A). The conditions noted are these: protein: recombinant; tags: N-terminal His-tag, removed with thrombin; blunt.
The target of the next data set is DUX4 HD2 R96A (human, UniProt Q9UBX2 94-153, R96A). The conditions noted are these: protein: recombinant; tags: N-terminal His-tag, removed with thrombin; blunt.
Chain of DUX4 HD2 R96A (Q9UBX2 94-153 R96A): as the sequence (Q9UBX2 94-153 Q143E) above, with R3A, E50Q counted along it
A further data set concerns the target DUX4 HD1-HD2 (human, UniProt Q9UBX2 19-153). The conditions noted are these: protein: recombinant; blunt.
In a further data set the target is DUX4 HD2 N144E (human, UniProt Q9UBX2 94-153, N144E). The conditions noted are these: protein: recombinant; tags: N-terminal His-tag, removed with thrombin; blunt.
Chain of DUX4 HD2 N144E (Q9UBX2 94-153 N144E): as the sequence (Q9UBX2 94-153 Q143E) above, with E50Q, N51E counted along it
In another data set the target is DUX4 HD2 R148E (human, UniProt Q9UBX2 94-153, R148E). The conditions noted are these: protein: recombinant; tags: N-terminal His-tag, removed with thrombin; blunt.
Chain of DUX4 HD2 R148E (Q9UBX2 94-153 R148E): as the sequence (Q9UBX2 94-153 Q143E) above, with E50Q, R55E counted along it
Another data set addresses DUX4 HD2 K97A (human, UniProt Q9UBX2 94-153, K97A). The conditions noted are these: protein: recombinant; tags: N-terminal His-tag, removed with thrombin; blunt.
The target of the next data set is DUX4 HD2 R95A (human, UniProt Q9UBX2 94-153, R95A). The conditions noted are these: protein: recombinant; tags: N-terminal His-tag, removed with thrombin; blunt.
Chain of DUX4 HD2 R95A (Q9UBX2 94-153 R95A): as the sequence (Q9UBX2 94-153 Q143E) above, with R2A, E50Q counted along it

Chain of DUX4 HD1-HD2 (Q9UBX2 19-153): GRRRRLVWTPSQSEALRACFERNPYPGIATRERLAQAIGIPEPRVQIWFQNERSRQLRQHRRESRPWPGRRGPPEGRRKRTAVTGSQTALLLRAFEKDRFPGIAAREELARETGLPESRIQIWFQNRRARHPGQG
Chain of DUX4 HD2 K97A (Q9UBX2 94-153 K97A): as the sequence (Q9UBX2 94-153 Q143E) above, with K4A, E50Q counted along it
Chain of DUX4 HD2 R98A (Q9UBX2 94-153 R98A): as the sequence (Q9UBX2 94-153 Q143E) above, with R5A, E50Q counted along it

B1: biotin-DNA-DRE (BLI) (dsDNA)
DNA 1: TTCTAATCTAATCA
DNA 2: TGATTAGATTAGAA
modifications: biotin
Usually Kd stands for a measure of binding affinity in units of concentration. Consider B1, for which the Kd with DUX4 HD2 Q143E came to 31 µM; with DUX4 HD1-HD2 it was 1400 nM; with DUX4 HD2 N144E, 55 µM; with DUX4 HD2 R148E, 67 µM. Also, the binding result with DUX4 HD2 R98A, with DUX4 HD2 R96A, in the data set with DUX4 HD2 K97A and in the data set with DUX4 HD2 R95A was “no binding” in each case.
